Assay results: patent US20240277818A1, “COMPOSITION INCLUDING A METAL-ORGANIC FRAMEWORK (MOF) NANOPARTICLE FOR ORAL PROTEIN ADMINISTRATION” (UNIVERSITY OF NORTH TEXAS, priority 2023, published 2024)

Columns and labels:
[1] = In vivo fluorescence imaging and biodistribution of RITC-INS formulations (UiO-68-NH2); design: species or system mice; rats
Method: RITC-INS, RITC-INS@U, T@RITC-INS@U were orally administered to the overnight fasted mice for in vivo fluorescence imaging. The fluorescence images of mice were captured at different time points using the SI Imaging Amix imaging system to evaluate the metabolic process of INS preparations. Another group of mice was sacrificed after 4 h of treatment. The images of organs and intestines were also obtained. Different formulations were orally administered to the overnight fasted rats for 4 h. Then the rats were sacrificed, and the intestine loops were excised and frozen in Tissue-Tek OCT with liquid nitrogen. Cross intestine sections were obtained using a freezing microtome blade and then stained the intestine sections with DAPI for 10 min and visualized by CLSM.

blood glucose level = experiment: In vivo pharmacodynamics, blood glucose after T@I@U, I@U and free INS; design: species or system alloxan-induced diabetic rats and mice
Method: In vivo INS bioactivity studies were performed in alloxan-induced diabetic animals (n=six per group). The rats and mice were induced to type I diabetes by alloxan injections. The animals were regarded as diabetic if their fasting blood glucose levels were higher than 11 mmol/L in one week after injection.

trypsin = experiment: Protection of INS from trypsin degradation by UiO-68-NH2 nanosystems; conditions: trypsin-containing HBSS buffer, 37 °C, 1 h
Method: To determine whether UiO-68-NH2 could protect INS from digestive enzymes, the NPs were incubated in simulated intestinal fluid containing trypsin (1 mg/mL) at 37° C. Aliquots (100 μL) at specific time intervals were taken out and added 200 μL of DMSO containing 0.1% trifluoroacetic acid to stop the enzymatic reaction. The concentration of INS was determined with the Elisa kit in all the following experiments.
Aliquots (100 μL) were removed at specified time intervals, 200 μL of DMSO containing 0.1% trifluoroacetic acid was added to stop the enzymatic reaction, and the concentration of insulin in the solution was determined using an Elisa kit.

[2] = In vivo fluorescence imaging and biodistribution of PCN-777 formulations; design: species or system mice; rats; conditions: 12 h after administration
Text: In vivo fluorescence imaging is undertaken. RITC-INS, RITC-INS@P, and R-I@F-P were orally administered to the overnight fasted diabetic mice or normal mice. The SI Imaging Amix imaging system was used to assess the distribution and metabolism of INS preparations in mice with different intestinal expressions of PCFT at different time points. Another group of diabetic mice or normal mice was sacrificed twelve hours after RITC-INS, RITC-INS@P, and R-I@F-P treatment, and the organs and intestines were collected and observed. The same procedure was done to diabetic rats. The intestine loops of the RITC-INS, RITC-INS@P, and R-I@F-P medicated rats were collected by the same procedure and frozen in Tissue-Tek OCT with liquid nitrogen. Intestinal sections were obtained using a cryostat and visualized by CLSM after staining with DAPI for 10 min.

Caco-2 cell monolayers = experiment: Lysosomal degradation of INS in cell monolayers, UiO-68-NH2 nanosystems; type: cell-based, human; conditions: 2 h incubation
[3] = test system: Caco-2 cell monolayers with high or low expression of PCFT; experiment: Transepithelial transport, TEER and INS degradation, PCN-777 nanosystems; conditions: 48 h of incubation
Method: The transepithelial transport studies were conducted following previously reported procedures. In short, the Caco-2 cells were cultured in transwell inserts for 21 days till the TEER values reached above 300Ω×cm^2. Caco-2 cell monolayers with high or low expression of PCFT were co-incubated with Free INS and I@P and I@F-P on the apical side for 48 hours. An amount of 100 μL of the sample was taken out from the basolateral side at different time intervals and 100 μL of DMEM was always supplemented to maintain a consistent volume. After 48 hours of incubation, samples of the apical and basolateral layers were collected respectively, and the cell monolayer was lysed with RIPA lysate and collected. The INS contents in each sample were then tested utilizing the bovine insulin ELISA kit. The degradation rate of INS in different preparations were calculated according to the following equation:
where m(total) is the total mass of INS added, m(apical) is the mass of INS in the apical layer, m(basolateral) is the mass of INS in the basolateral layer, and m(inside) is the mass of INS in the cell monolayer.

[4] = In vivo pharmacokinetics, serum INS (UiO-68-NH2 nanosystems)
Method: The rats and mice fasted overnight before experiments and then administered different samples by gavage. The […] effect was tested following the oral administration of I@U and T@I@U (20 IU/kg). As control groups, one group of rats were administered free INS (20 IU/kg) by oral gavage, and the other group was administered free INS (5 IU/kg) by s.c. injection. Blood samples were collected from the orbital venous plexus and analyzed using a blood glucose meter, expressed as the percentage of baseline serum glucose level (0 h) at different periods. The INS contents in blood samples were measured using the bovine INS ELISA kit. The 0 h INS content was subtracted from the INS measured at different time intervals and plotted.
Hypoglycemic effects (FIG. 7A, B) and insulin levels in the serum of SD rats (FIG. 7C) were tested after administration of equal amounts of insulin I @ U and T @ I @ U (20IU/kg) to diabetic mice (BALB/C mice) and rats (SD rats) by gavage. As a control group, one group of rats was administered insulin (20 IU/kg) by gavage, and the other group was administered insulin (5 IU/kg) by subcutaneous injection.

blood glucose levels = experiment: In vivo pharmacodynamics of PCN-777 nanosystems in rats; design: species or system SD rats; conditions: diabetic rats
Method: Animal models and diabetes induction were undertaken. Male Sprague Dawley rats (180-200 g) and BALB/c mice (18-20 g) were provided by Beijing Vital River Laboratory Animal Technology Co. Ltd. New Zealand rabbits (2-2.5 kg) were provided in all the animal studies were conducted following the Chinese Regulations for the Administration of Affairs Concerning Experimental Animals and performed in compliance with the guidelines of the Institutional Animal Care and Use Committee (IACUC) of Wuhan University. To establish an alloxan-induced diabetic rat model, healthy rats were intravenously injected with alloxan 50 mg/kg once and the blood glucose changes were monitored daily to confirm their diabetic status. After seven days, the blood glucose was stable at 20 mmol/L, proving the diabetes model was successfully established. The difference between the establishment of diabetes models of mice and rabbits was that the dosage of alloxan in mice and rabbits is 100 mg/kg. […] INS bioactivity in vivo was undertaken. In vivo studies were performed in alloxan-induced diabetic rats (n=five per group) and rabbits (n=three per group). […] At predetermined time intervals, blood samples were collected for glucose testing using a blood glucose meter. Serum insulin level was determined using a bovine INS ELISA kit. […]

[5] = in vivo; cited from earlier work

Substance | INS fluorescence in major organs / liver ([1]; 4 h after oral administration) | INS fluorescence in sectioned intestine epithelial tissue ([1]; confocal imaging, 2 h after administration) | blood glucose response (blood glucose level; oral gavage, 20 IU/kg) | time after which hypoglycemic effect wears off (blood glucose level; subcutaneous 5 IU/kg) | blood glucose level, % of the initial level (blood glucose level; subcutaneous 5 IU/kg, at 2 h) | active INS remaining (trypsin) | fluorescence in intestine epithelial tissue sections [2] | ingested INS degraded (Caco-2 cell monolayers) | degradation of ingested INS [3] | relative (oral) bioavailability ([4]; oral 20 IU/kg versus s.c. free INS 5 IU/kg) | time of maximum serum INS level ([4]; subcutaneous 5 IU/kg) | time of return of serum INS to minimum ([4]; subcutaneous 5 IU/kg) | glucose response (blood glucose levels; oral administration) | time to restoration of high blood glucose levels (blood glucose levels; subcutaneous injection) | duration of action [5]
insulin [free INS] | does not show any fluorescence signal | barely any fluorescence | fails to reduce the blood glucose level | 4 h | about 28% | almost completely degraded | only weak fluorescence | about 50% | almost completely degrades | 0.7% | ≤ 1 h | 4 h | fail to generate a significant glucose response | ≤ 4 h | 
regular insulin: regular insulin (INS) as used by injection in diabetics |  |  |  |  |  |  |  |  |  |  |  |  |  |  | 4 to 8 h
